The text below walks through data of US20160039934A1 (AFFIRMED, published 2016).

One may read the Kd as the constant that tells how readily two partners part at equilibrium.

One experiment concerns the target EGFRvIII (UniProt P00533 25-1210). Nature of the experiment: cell-based or functional assay.
In experiment [1] the target is T1, human CD3 (human, UniProt P07766 23-207).
T1 construct: whole, on cells; CD3 is a multi-chain complex; also called CD3 on human CD3+ Jurkat cells; CD3+ human T cell line (Jurkat)
Nature of the experiment: flow cytometry on Jurkat cells; reference TandAb E. From the text:
(§1) Cell-surface bound tandem diabody was detected by anti-His mAb followed by FITC-conjugated goat anti-mouse IgG. To calculate KD, mean fluorescence intensities determined by flow cytometry were modeled as sigmoidal dose-response by non-linear regression.
(§2) FIGS. 3A and 3B present binding of titrated tandem diabodies TandAb D, containing var_y, and TandAb E (SEQ ID NO:12), containing var_z, to a CD3⁺ human T cell line (Jurkat) and a CD3⁺ cynomolgus cell line (HSC-F), as determined by flow cytometric analysis.
In general terms: In flow cytometry, cells or beads pass a laser one at a time.

Experiment [2] concerns the target T1, human CD3. Nature of the experiment: flow cytometry on Jurkat cells, non-linear regression (rounded restatement of the FIG. 3 value).
Description: as §1, §2

The target of experiment [3] is T1, human CD3. Nature of the experiment: flow cytometry on human CD3+ Jurkat cells, anti-His mAb and FITC goat anti-mouse IgG, non-linear regression of MFI.
Description: as §1, §2

The target in a further experiment is T2, cynomolgus CD3 (cynomolgus, UniProt Q95LI5 22-198).
T2 construct: whole, on cells; CD3 is a multi-chain complex; also called CD3 on cynomolgus CD3+ HSC-F cells; cynomolgus CD3-expressing cell line (HSC-F)
Nature of the experiment: flow cytometry on cynomolgus CD3+ HSC-F cells, anti-His mAb and FITC goat anti-mouse IgG, non-linear regression of MFI.
Description: as §1, §2

Residue numbers refer to the chain shown, from its start.

T1 sequence (P07766 23-207): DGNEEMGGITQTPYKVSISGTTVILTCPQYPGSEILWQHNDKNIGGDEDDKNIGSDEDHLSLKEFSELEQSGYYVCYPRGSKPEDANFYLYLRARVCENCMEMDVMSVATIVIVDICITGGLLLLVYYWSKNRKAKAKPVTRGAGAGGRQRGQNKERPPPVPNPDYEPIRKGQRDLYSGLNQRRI
T2 sequence (Q95LI5 22-198): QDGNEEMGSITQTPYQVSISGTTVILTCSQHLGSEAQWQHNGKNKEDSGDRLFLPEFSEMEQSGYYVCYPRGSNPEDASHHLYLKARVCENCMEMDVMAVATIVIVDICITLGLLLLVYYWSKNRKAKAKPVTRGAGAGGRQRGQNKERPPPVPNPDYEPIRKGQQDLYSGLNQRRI

B1: TandAb G (SEQ ID NO:14) (bispecific antibody)
chain: DIQMTQSPSSLSASVGDRVTITCRSSTGAVTTSNYANWVQQKPGKAPKGLIGGTNKRAPGVPSRFSGSLIGDKATLTISSLQPEDFATYYCALWYSNLWVFGQGTKVEIKGGSGGSEVQLVQSGAEVKKPGESLKISCKGSGYSFTSYWIGWVRQMPGKGLEWMGIIYPGDSDTRYSPSFQGQVTISADKSISTAYLQWSSLKASDTAMYYCARLGSSWTNDAFDIWGQGTMVTVSSGGSGGSSYELTQPPSVSVSPGQTARITCSGDALPKQYAYWYQQKPGQAPVLVIYKDSERPSGIPERFSGSSSGTTVTLTISGVQAEDEADYYCQSADSSGTPLIVFGTGTKLTVLGGSGGSEVQLVESGGGLVQPGGSLRLSCAASGFTFSTYAMNWVRQAPGKGLEWVGRIRSKYNNYATYYADSVKDRFTISRDDSKNSLYLQMNSLKTEDTAVYYCARHGNFGNSYVSWFAYWGQGTLVTVSSAAAGSHHHHHH
In the case of B1, the “EC50, 4 h calcein release cytotoxicity assay” value in the experiment with EGFRvIII is 0.129 nM.

B2: TandAb D (var_y) (SEQ ID NO:11) (bispecific antibody)
chain: B1 chain with G49A, W469Y
notes: Homodimeric tandem diabody; Detected by anti-His mAb
Consider B2, for which the “EC50, 4 h calcein release cytotoxicity assay” value in the experiment with EGFRvIII is 0.122 nM. Moreover, the “fold higher affinity than TandAb E” value with human CD3 [1] is > 10 fold. In addition, the Kd came to 1.8 nM with human CD3 [2], 1.82 nM with human CD3 [3] and 3.4 nM in the experiment with cynomolgus CD3.

B3: TandAb E (var_z) (SEQ ID NO:12) (bispecific antibody)
chain: B1 chain with W469H
notes: as for B2
For B3, the Kd with human CD3 [2] was 27.7 nM; with human CD3 [3], 27.7 nM; with cynomolgus CD3, 24.3 nM.
